This is an account of results in paper PMC2724282 (Nucleic Acids Research, 2009).

The data set concerns the molecule itself. Nature of the data set: cross-linking.

B1: Hin–H107Y/S94C (enzyme)
chain: MATIGYIRVSTIDQNIDLQRNALTSANCDRIFEDRISGKIANRPGLKRALKYVNKGDTLVVWKLDRLGRSVKNLVALISELHERGAHFHSLTDCIDTSSAMGRFFFYVMSALAEMERELIVERTLAGLAAARAQGRLGGRPRAINKHEQEQISRLLEKGHPRQQLAIIFGIGVSTLYRYFPASRIKKRMN
On to B1, for which the binding result is recorded as “binds”.
